Residue numbers refer to the chain shown, from its start.

This note sets out measurements from US20230235304.

Common to all, as to experiment: cell_activity
Holding throughout (details): PAM 5'-GCTG-3'; HEK293T; averaged over AAVS1, VEGFA, EMX1 targets

The subject of series [1] is T1, CRISPR nuclease variant D509R D509R (synthetic construct).
T1 sequence: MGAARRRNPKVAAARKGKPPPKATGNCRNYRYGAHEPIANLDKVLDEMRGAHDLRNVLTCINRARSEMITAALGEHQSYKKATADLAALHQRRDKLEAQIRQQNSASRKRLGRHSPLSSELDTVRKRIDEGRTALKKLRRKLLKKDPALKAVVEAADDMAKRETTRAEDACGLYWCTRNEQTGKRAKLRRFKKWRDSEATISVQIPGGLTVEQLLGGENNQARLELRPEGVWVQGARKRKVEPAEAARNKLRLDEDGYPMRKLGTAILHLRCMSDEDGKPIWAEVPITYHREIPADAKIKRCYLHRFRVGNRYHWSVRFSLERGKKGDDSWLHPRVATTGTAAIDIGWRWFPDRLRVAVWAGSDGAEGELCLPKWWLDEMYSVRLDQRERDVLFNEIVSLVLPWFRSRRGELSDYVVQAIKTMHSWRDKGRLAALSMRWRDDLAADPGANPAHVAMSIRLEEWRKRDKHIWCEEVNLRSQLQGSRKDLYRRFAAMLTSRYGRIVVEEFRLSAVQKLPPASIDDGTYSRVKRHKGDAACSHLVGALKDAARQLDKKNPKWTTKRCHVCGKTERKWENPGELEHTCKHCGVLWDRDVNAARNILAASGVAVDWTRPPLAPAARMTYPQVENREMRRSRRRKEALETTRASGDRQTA

Series [2] concerns T2, CRISPR nuclease variant D535G D535G (synthetic construct).
T2 sequence: T1 sequence with R509D, D535G

In series [3] the test system is T3, CRISPR nuclease variant D535G,L516R,I521R D535G,L516R,I521R (synthetic construct).
T3 sequence: T1 sequence with R509D, L516R, I521R, D535G

In series [4] the test system is T4, CRISPR nuclease variant I521R I521R (synthetic construct).
T4 sequence: T1 sequence with R509D, I521R

“GGUCCCAUCGGAACGGGUUGUGGUUCCGACGGAGGGAUACAUUGGUGGGG / GGAGGGATACATTGGTGGGG / CCCCACCAATGTATCCCTCC [AAVS1 crRNA (Table 5) ; AAVS1 target (Table 5)]”: the binding signal (fold indels vs WT) turned out to be 3.91 in series [1], 3.57 in series [2], 3.59 in series [3] and 3.57 in series [4].
